IntAct's records for PubMed 35512704

B1: Mothers against decapentaplegic homolog 4 (Homo sapiens), Q13485 (parent)
chain: MDNMSITNTPTSNDACLSIVHSLMCHRQGGESETFAKRAIESLVKKLKEKKDELDSLITAITTNGAHPSKCVTIQRTLDGRLQVAGRKGFPHVIYARLWRWPDLHKNELKHVKYCQYAFDLKCDSVCVNPYHYERVVSPGIDLSGLTLQSNAPSSMMVKDEYVHDFEGQPSLSTEGHSIQTIQHPPSNRASTETYSTPALLAPSESNATSTANFPNIPVASTSQPASILGGSHSEGLLQIASGPQPGQQQNGFTGQPATYHHNSTTTWTGSRTAPYTPNLPHHQNGHLQHHPPMPPHPGHYWPVHNELAFQPPISNHPAPEYWCSIAYFEMDVQVGETFKVPSSCPIVTVDGYVDPSGGDRFCLGQLSNVHRTEAIERARLHIGKGVQLECKGEGDVWVRCLSDHAVFVQSYYLDREAGRAPGDAVHKIYPSAYIKVFDLRQCHRQMQQQAATAQAAAAAQAAAVAGNIPGPGSVGGIAPAISLSAAAGIGVDDLRRLCILRMSFVKGWGPDYPRQSIKETPCWIEIHLHRALQLLDEVLHTMPIADPQPLD

Variants of: B1
Conditions: with keap1_human KEAP1, Q14145

Variant | effect of a mutation on the interaction
D351H | with no effect

Variants of: B1
Conditions: with klf4_human KLF4, O43474

Variant | effect of a mutation on the interaction
D351H | with no effect

Variants of: B1
Conditions: with maga6_human MAGEA6, P43360

Variant | effect of a mutation on the interaction
D351H | with no effect

Variants of: B1
Conditions: with mp2k7_human MAP2K7, O14733

Variant | effect of a mutation on the interaction
D351H | with no effect

Variants of: B1
Conditions: with m3k1_human MAP3K1, Q13233

Variant | effect of a mutation on the interaction
D351H | with no effect

Variants of: B1
Conditions: with mk10_human MAPK10, P53779

Variant | effect of a mutation on the interaction
D351H | with no effect

Variants of: B1
Conditions: with mk14_human MAPK14, Q16539

Variant | effect of a mutation on the interaction
D351H | with no effect

Variants of: B1
Conditions: with mk03_human MAPK3, P27361

Variant | effect of a mutation on the interaction
D351H | with no effect

Variants of: B1
Conditions: with mk04_human MAPK4, P31152

Variant | effect of a mutation on the interaction
D351H | with no effect

Variants of: B1
Conditions: with mk06_human MAPK6, Q16659

Variant | effect of a mutation on the interaction
D351H | with no effect

Variants of: B1
Conditions: with mcl1_human MCL1, Q07820

Variant | effect of a mutation on the interaction
D351H | with no effect

Variants of: B1
Conditions: with mitf_human MITF

Variant | effect of a mutation on the interaction
D351H | with no effect

Variants of: B1
Conditions: with myc_human MYC

Variant | effect of a mutation on the interaction
D351H | with no effect

Variants of: B1
Conditions: with nck2_human NCK2, O43639

Variant | effect of a mutation on the interaction
D351H | with no effect

Variants of: B1
Conditions: with nf1_human NF1, P21359

Variant | effect of a mutation on the interaction
D351H | with no effect

Variants of: B1
Conditions: with merl_human NF2, P35240

Variant | effect of a mutation on the interaction
D351H | with no effect

Variants of: B1
Conditions: with nfic_human NFIC

Variant | effect of a mutation on the interaction
D351H | with no effect

Variants of: B1
Conditions: with notc2_human NOTCH2, Q04721

Variant | effect of a mutation on the interaction
D351H | with no effect

Variants of: B1
Conditions: with ntrk2_human NTRK2, Q16620

Variant | effect of a mutation on the interaction
D351H | with no effect

Variants of: B1
Conditions: with ntrk3_human NTRK3, Q16288

Variant | effect of a mutation on the interaction
D351H | with no effect

Variants of: B1
Conditions: with pak3_human PAK3, O75914

Variant | effect of a mutation on the interaction
D351H | with no effect

Variants of: B1
Conditions: with prkn_human PRKN

Variant | effect of a mutation on the interaction
D351H | with no effect

Variants of: B1
Conditions: with pax5_human PAX5, Q02548

Variant | effect of a mutation on the interaction
D351H | with no effect

Variants of: B1
Conditions: with pax9_human PAX9, P55771

Variant | effect of a mutation on the interaction
D351H | with no effect

Variants of: B1
Conditions: with pcbp1_human PCBP1, Q15365

Variant | effect of a mutation on the interaction
D351H | with no effect

Variants of: B1
Conditions: with pgfra_human PDGFRA

Variant | effect of a mutation on the interaction
D351H | with no effect

Variants of: B1
Conditions: with pgfrb_human PDGFRB

Variant | effect of a mutation on the interaction
D351H | with no effect

Variants of: B1
Conditions: with pdk1_human PDK1, Q15118

Variant | effect of a mutation on the interaction
D351H | with no effect

Variants of: B1
Conditions: with PIK3C2B

Variant | effect of a mutation on the interaction
D351H | with no effect

Variants of: B1
Conditions: with pk3c3_human PIK3C3, Q8NEB9

Variant | effect of a mutation on the interaction
D351H | with no effect

Variants of: B1
Conditions: with pk3ca_human PIK3CA

Variant | effect of a mutation on the interaction
D351H | with no effect

Variants of: B1
Conditions: with pk3cb_human PIK3CB

Variant | effect of a mutation on the interaction
D351H | with no effect

Variants of: B1
Conditions: with pk3cg_human PIK3CG

Variant | effect of a mutation on the interaction
D351H | with no effect

Variants of: B1
Conditions: with p85a_human PIK3R1, P27986

Variant | effect of a mutation on the interaction
D351H | with no effect

Variants of: B1
Conditions: with p85b_human PIK3R2, O00459

Variant | effect of a mutation on the interaction
D351H | with no effect

Variants of: B1
Conditions: with dpod1_human POLD1, P28340

Variant | effect of a mutation on the interaction
D351H | with no effect

Variants of: B1
Conditions: with dpoe1_human POLE

Variant | effect of a mutation on the interaction
D351H | with no effect

Variants of: B1
Conditions: with lipa1_human PPFIA1, Q13136

Variant | effect of a mutation on the interaction
D351H | with no effect

Variants of: B1
Conditions: with 2aaa_human PPP2R1A

Variant | effect of a mutation on the interaction
D351H | with no effect

Variants of: B1
Conditions: with prdm1_human PRDM1, O75626

Variant | effect of a mutation on the interaction
D351H | with no effect

Variants of: B1
Conditions: with aapk2_human PRKAA2, P54646

Variant | effect of a mutation on the interaction
D351H | with no effect

Variants of: B1
Conditions: with prss8_human PRSS8, Q16651

Variant | effect of a mutation on the interaction
D351H | with no effect

Variants of: B1
Conditions: with ptk6_human PTK6, Q13882

Variant | effect of a mutation on the interaction
D351H | with no effect

Variants of: B1
Conditions: with tf65_human RELA

Variant | effect of a mutation on the interaction
D351H | with no effect
